Read-outs that look alike come from different tables or passages of the source. Non-standard residues stand in square brackets, D forms with d. Primed or numbered codes have the meaning given here. No end group written: not given here. *: point of attachment. N3‑Phe = N-terminal azido-phenylalanine, [N-]=[N+]=N[C@@H](Cc1ccccc1)C(=O)*; HMB = 3-hydroxy-2-methylbenzoyl cap, Cc1c(O)cccc1C(=O)*; Phe(4-N3) = [N-]=[N+]=Nc1ccc(C[C@H](N)C(=O)O)cc1; Phe(4-CH2NH2) = NCc1ccc(C[C@H](N)C(=O)O)cc1; Phe(4-NH2) = Nc1ccc(C[C@H](N)C(=O)O)cc1; N3Phe = N-terminal azido-phenylalanine; 4Pal = N[C@@H](Cc1ccncc1)C(=O)O; VS″ = vinyl sulfone (warhead); VS = vinyl sulfone warhead; EK = epoxyketone warhead; ek = epoxyketone warhead
Tests used:
[1] = target: T1, trypsin-like site (β2 subunit) of 26S proteasomes purified from rabbit muscle (rabbit, UniProt G1SWK8 44-271); assay: cell-based or functional assay
T1 sequence: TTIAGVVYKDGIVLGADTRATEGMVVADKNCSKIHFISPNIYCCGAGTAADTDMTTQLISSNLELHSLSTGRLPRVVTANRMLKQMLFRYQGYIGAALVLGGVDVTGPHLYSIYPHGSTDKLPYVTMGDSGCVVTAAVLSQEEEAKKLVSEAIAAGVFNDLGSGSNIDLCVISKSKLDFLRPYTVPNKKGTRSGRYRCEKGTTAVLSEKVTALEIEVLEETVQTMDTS

[2] = target: T2, caspase-like site (β1 subunit) of 26S proteasomes purified from rabbit muscle (rabbit); assay: cell-based or functional assay
[3] = target: T3, proteasome β1 subunit (caspase-like site) in human cells and cell extracts (human, UniProt P28072 35-239); assay: cell-based or functional assay
T3 sequence (P28072 35-239): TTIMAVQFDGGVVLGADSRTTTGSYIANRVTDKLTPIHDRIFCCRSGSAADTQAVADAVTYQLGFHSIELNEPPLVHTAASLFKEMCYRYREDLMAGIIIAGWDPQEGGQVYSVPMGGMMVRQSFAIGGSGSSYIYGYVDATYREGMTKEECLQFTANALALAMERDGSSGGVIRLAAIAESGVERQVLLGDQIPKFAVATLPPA

[4] = target: T1, trypsin-like site (β2 subunit) of 26S …; assay: cell-based or functional assay; remark: listed apart in the source
[5] = target: T4, chymotrypsin-like site (β5 subunit) of 26S proteasomes purified from rabbit muscle (rabbit, UniProt G1T4Q9 60-263); assay: cell-based or functional assay
T4 sequence: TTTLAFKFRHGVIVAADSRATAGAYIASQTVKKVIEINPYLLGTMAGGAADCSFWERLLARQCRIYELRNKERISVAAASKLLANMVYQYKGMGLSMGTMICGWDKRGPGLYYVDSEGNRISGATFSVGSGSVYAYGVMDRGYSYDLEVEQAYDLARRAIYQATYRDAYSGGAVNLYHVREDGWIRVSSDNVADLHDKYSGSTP

[6] = target: T5, proteasome β5 subunit (chymotrypsin-like site) in human cells and cell extracts (human, UniProt P28074 60-263); assay: competition with activity-based probe in living HEK-293 cells, 4 h; Chym-L site
T5 construct: mature; also called Chym-L; chymotrypsin-like sites

[7] = target: T3, proteasome β1 subunit (caspase-like …); assay: labelling and competition assay in HEK-293T lysate, fluorescence gel
[8] = target: T6, chymotrypsin-like site (β5 subunit) of yeast 20S proteasome (S. cerevisiae, UniProt P30656 76-287); assay: cell-based or functional assay
T6 sequence (looked up): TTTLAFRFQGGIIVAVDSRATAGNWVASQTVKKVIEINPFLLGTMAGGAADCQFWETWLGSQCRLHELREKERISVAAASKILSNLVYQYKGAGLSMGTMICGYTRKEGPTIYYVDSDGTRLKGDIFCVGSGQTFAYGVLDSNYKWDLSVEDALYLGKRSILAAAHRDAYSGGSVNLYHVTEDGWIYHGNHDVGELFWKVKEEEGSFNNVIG

[9] = target: T7, trypsin-like site (β2 subunit) of yeast 20S proteasome (S. cerevisiae, UniProt P25043 30-261); assay: cell-based or functional assay
T7 sequence (looked up): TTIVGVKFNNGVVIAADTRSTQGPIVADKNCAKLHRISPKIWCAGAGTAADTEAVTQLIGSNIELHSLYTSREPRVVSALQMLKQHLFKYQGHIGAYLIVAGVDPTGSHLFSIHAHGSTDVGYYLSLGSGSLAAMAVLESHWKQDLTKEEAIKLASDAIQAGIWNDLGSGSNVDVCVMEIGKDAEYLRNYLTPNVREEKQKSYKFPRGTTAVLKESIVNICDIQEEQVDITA

[10] = target: T7, trypsin-like site (β2 subunit) of yeast …; assay: cell-based or functional assay; remark: listed apart in the source
[11] = target: T4, chymotrypsin-like site (β5 subunit) of …; assay: cell-based or functional assay; remark: listed apart in the source
[12] = target: T1, trypsin-like site (β2 subunit) of 26S …; assay: cell-based or functional assay; remark: listed apart in the source
[13] = target: T2, caspase-like site (β1 subunit) of 26S …; assay: cell-based or functional assay; remark: listed apart in the source
[14] = target: T5, proteasome β5 subunit …; assay: cell-based or functional assay

[Phe(4-N3)]LL[Phe(4-CH2NH2)]-{EK} (also: TFA salt) [N3Phe-Leu-Leu-Phe(4-CH2NH2)EK TFA salt (4b)] was tested, and the “IC50 (µM) for sites in 26S proteasomes: Tr-L” value [1] was 0.25 µM and the “IC50 (µM) for sites in 26S proteasomes: Casp-L” value [2] was 11 µM.

For [N3Phe][4Pal]L[Phe(4-CH2NH2)]-{VS} (also: TFA salt) [N3-Phe-Ala(4-pyridine)-Leu-Phe(4-CH2NH2-TFA)-VS (50)], the “IC50 (µM) for sites: Casp-L; NCI-H929 cells, 6 h, PROTEASOMEGLO” value [3] was greater than 30 µM, the “IC50 (µM) for sites: Tr-L” value [4] was 0.012 µM and the “IC50 (µM) for sites: Chym-L” value [5] was 1.05 µM. For the same binder, the IC50 [6] was greater than 50 µM.

B1: BODIPY-triazole-Phe-Leu-Leu-Phe(4-CH2NH2)-VS TFA salt (39) (peptide)
peptide: {BODIPY‑triazole}-FLL[Phe(4-CH2NH2)]-{VS″}
modifications: also: TFA salt
notes: Fluorescent probe made from compound 4a; also called compound 39
B1: no binding [7].

[N3‑Phe][Phe(4-CH2NH2)]L[Phe(4-CH2NH2)]-{VS} [N3-Phe-Phe(4-CH2NH2)-Leu-Phe(4-CH2NH2)-VS (52)] was tested, and the “IC50 (µM) for yeast 20S proteasome: Chym-L” value [8] was 6.1 µM, the “IC50 (µM) for yeast 20S proteasome: Tr-L” value [9] was 0.00055 µM and the “fold potency against yeast trypsin-like sites relative to 4a” value [10] was greater than 4000 fold.

For [N3Phe]LL[Phe(4-NH2)]-{VS} [N3-Phe-Leu-Leu-Phe(4-NH2)-VS (45a)], the “IC50 (µM) for sites in 26S proteasomes: Chym-L” value [11] was 0.04 µM and the “IC50 (µM) for sites in 26S proteasomes: Casp-L” value [2] was 23 µM.

For {HMB}-Val-Ser-[Phe(4-CH2NH2)]-{VS} [HMB-Val-Ser-Phe(4-CH2NH2)-VS (48)], the “IC50 (µM) for sites: Casp-L; NCI-H929 cells, 6 h, PROTEASOMEGLO” value [3] was greater than 30 µM, the “IC50 (µM) for sites: Casp-L; RPMI-8226 cells, 6 h, PROTEASOMEGLO” value [3] was greater than 30 µM and the “IC50 (µM) for sites in 26S proteasomes: Tr-L” value [12] was 0.25 µM. For the same binder, the “IC50 (µM) for sites in 26S proteasomes: Casp-L” value [13] was 11 µM.

For [Phe(4-N3)]LL[Phe(4-NH2)]-{EK} [N3-Phe-Leu-Leu-Phe(4-NH2)-EK (45b)], the “IC50 (µM) for sites in 26S proteasomes: Tr-L” value [1] was 1.8 µM, the “IC50 (µM) for sites in 26S proteasomes: Chym-L” value [11] was 0.01 µM and the “IC50 (µM) for sites in 26S proteasomes: Casp-L” value [2] was greater than 30 µM.

With Ac-Leu-Leu-Arg-ek [NC-002 (Ac-Leu-Leu-Arg-ek)] the “IC50 (µM) for sites in 26S proteasomes: Tr-L” value [1] was 1 µM, the “IC50 (µM) for sites in 26S proteasomes: Chym-L” value [11] was greater than 30 µM and the “IC50 (µM) for sites in 26S proteasomes: Casp-L” value [2] was greater than 30 µM.

In the case of {HMB}-Val-Ser-Arg-ek [NC-022 (HMB-Val-Ser-Arg-ek)], the “IC50 (µM) for sites: Chym-L; NCI-H929 cells, 6 h, PROTEASOMEGLO” value [14] is reported as greater than 30 µM, the “IC50 (µM) for sites: Chym-L; RPMI-8226 cells, 6 h, PROTEASOMEGLO” value [14] is reported as greater than 30 µM and the “IC50 (µM) for sites: Casp-L; NCI-H929 cells, 6 h, PROTEASOMEGLO” value [3] is reported as greater than 30 µM. The “IC50 (µM) for sites: Casp-L; RPMI-8226 cells, 6 h, PROTEASOMEGLO” value [3] was greater than 30 µM, the “IC50 (µM) for sites in 26S proteasomes: Tr-L” value [12] was 0.0038 µM and the “IC50 (µM) for sites in 26S proteasomes: Casp-L” value [13] was 16 µM.
